In PMC7948458:

What was measured:
Assay in all cases: EMSA
OGG1 C140S C140S = OGG1 C140S C140S (UniProt O15527); conditions: 8-oxoguanine at position 16 of strand 1, opposite C; EMSA: 0.1 nM DNA, 0.5-4000 nM OGG1, 25 mM Tris-HCl pH 7.6, 175 nM NaCl (sic), 1 mM EDTA, 1 mM DTT, 300 ug/ml BSA, 12% glycerol, 15 min, 4 C
OGG1 C146S C146S = OGG1 C146S C146S (UniProt O15527); conditions: EMSA: 0.1 nM DNA, 0.5-4000 nM OGG1, 25 mM Tris-HCl pH 7.6, 175 nM NaCl (sic), 1 mM EDTA, 1 mM DTT, 300 ug/ml BSA, 12% glycerol, 15 min, 4 C
OGG1 C146S C146S, sequence (O15527 whole entry C146S): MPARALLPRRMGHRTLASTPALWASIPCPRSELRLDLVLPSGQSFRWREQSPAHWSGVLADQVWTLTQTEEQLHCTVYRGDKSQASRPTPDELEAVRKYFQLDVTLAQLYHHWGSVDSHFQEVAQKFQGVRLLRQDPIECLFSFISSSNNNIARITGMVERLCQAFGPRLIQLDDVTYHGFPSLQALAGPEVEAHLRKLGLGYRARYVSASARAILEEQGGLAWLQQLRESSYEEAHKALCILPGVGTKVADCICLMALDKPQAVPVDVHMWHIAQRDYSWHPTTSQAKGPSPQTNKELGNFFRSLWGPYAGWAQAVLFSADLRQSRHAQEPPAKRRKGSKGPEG

OGG1 C241S C241S = OGG1 C241S C241S (UniProt O15527); conditions: EMSA: 0.1 nM DNA, 0.5-4000 nM OGG1, 25 mM Tris-HCl pH 7.6, 175 nM NaCl (sic), 1 mM EDTA, 1 mM DTT, 300 ug/ml BSA, 12% glycerol, 15 min, 4 C
OGG1 C241S C241S, sequence (O15527 whole entry C241S): as the sequence (O15527 whole entry C146S) above, with S146C, C241S counted along it

OGG1 C253S C253S = OGG1 C253S C253S (UniProt O15527); conditions: 8-oxoguanine at position 16 of strand 1, opposite C; EMSA: 0.1 nM DNA, 0.5-4000 nM OGG1, 25 mM Tris-HCl pH 7.6, 175 nM NaCl (sic), 1 mM EDTA, 1 mM DTT, 300 ug/ml BSA, 12% glycerol, 15 min, 4 C
OGG1 C253S C253S, sequence (O15527 whole entry C253S): as the sequence (O15527 whole entry C146S) above, with S146C, C253S counted along it

OGG1 C255S C255S = OGG1 C255S C255S (UniProt O15527); conditions: 8-oxoguanine at position 16 of strand 1, opposite C; EMSA: 0.1 nM DNA, 0.5-4000 nM OGG1, 25 mM Tris-HCl pH 7.6, 175 nM NaCl (sic), 1 mM EDTA, 1 mM DTT, 300 ug/ml BSA, 12% glycerol, 15 min, 4 C
OGG1 C255S C255S, sequence (O15527 whole entry C255S): as the sequence (O15527 whole entry C146S) above, with S146C, C255S counted along it

OGG1 C28S C28S = OGG1 C28S C28S (UniProt O15527); conditions: EMSA: 0.1 nM DNA, 0.5-4000 nM OGG1, 25 mM Tris-HCl pH 7.6, 175 nM NaCl (sic), 1 mM EDTA, 1 mM DTT, 300 ug/ml BSA, 12% glycerol, 15 min, 4 C
OGG1 C28S C28S, sequence (O15527 whole entry C28S): as the sequence (O15527 whole entry C146S) above, with C28S, S146C counted along it

OGG1 WT = OGG1 WT (UniProt O15527); conditions: EMSA: 0.1 nM DNA, 0.5-4000 nM OGG1, 25 mM Tris-HCl pH 7.6, 175 nM NaCl (sic), 1 mM EDTA, 1 mM DTT, 300 ug/ml BSA, 12% glycerol, 15 min, 4 C
OGG1 WT, sequence (O15527 whole entry): as the sequence (O15527 whole entry C146S) above, with S146C counted along it

[1] = 8-oxoguanine at position 16 of strand 1, opposite C
[2] = tetrahydrofuran abasic analog at position 16 of strand 1 (written N), opposite base Y is C or A, not stated for this assay (written N)

OGG1 C140S C140S, sequence (O15527 whole entry C140S): as the sequence (O15527 whole entry C146S) above, with C140S, S146C counted along it

With “CGTTCAACGTGCACTGACAGCACGTCCCAT (double strand) [8-oxoG:C 30-mer duplex]” as the sequence, how does the binding signal (fold increase in Kd vs WT) (OGG1 C140S C140S) read?
Its binding signal (fold increase in Kd vs WT) is 10.

And the binding signal (fold increase in Kd vs WT) (OGG1 C146S C146S; [1])?
Its binding signal (fold increase in Kd vs WT) is 10.

And the binding signal (fold increase in Kd vs WT) (OGG1 C241S C241S; [1])?
Its binding signal (fold increase in Kd vs WT) is 10.

And the binding signal (fold increase in Kd vs WT) (OGG1 C253S C253S)?
The binding signal (fold increase in Kd vs WT) was 10.

What about the binding signal (fold increase in Kd vs WT) (OGG1 C255S C255S) of the same sequence?
The binding signal (fold increase in Kd vs WT) was 10.

And the binding signal (fold increase in Kd vs WT) (OGG1 C28S C28S; [1])?
The binding signal (fold increase in Kd vs WT) was 10.

What about the Kd (OGG1 WT; [1]) of the same sequence?
Its Kd is 1.9 nM.

With “CGTTCAACGTGCACTGACAGCACGTCCCAT / ATGGGACGTGCTGTAAGTGCACGTTGAACG [8-oxoG:A 30-mer duplex]” as the sequence, how does the Kd (OGG1 WT; 8-oxoguanine at position 16 of strand 1, opposite A) read?
The Kd was 201 nM.

Which results are given for “CGTTCAACGTGCACTNACAGCACGTCCCAT (double strand) [THF 30-mer duplex]”?
Kd (OGG1 C146S C146S; [2]): 9.9 nM; Kd (OGG1 C241S C241S; [2]): 3.5 nM; Kd (OGG1 C28S C28S; [2]): 2.2 nM; Kd (OGG1 WT; [2]): 0.6 nM
